From patent US5824484, “RXR homodimer formation” (La Jolla Cancer Research Foundation) come the findings set out here.

The target in series [1] is T1, RXR alpha homodimer (UniProt P19793 P19793:1-462). The experiment in a line: EMSA; with 9-cis-RA; complex slower than heterodimer; reduced when RAR present. Conditions: chain copies: 2 (stated); label: 32P. On the procedure:
(§1) (a) In vitro synthesized RXRα was incubated either with (+) or without (−) indicated hormones (10^-7M 9-cis-RA; 10^-6M RA; 10^-6M T_3) in the presence or absence of in vitro synthesized TRα or RARβ for 30 min at room temperature. After this preincubation, the reaction mixtures were analyzed by gel retardation assay using ^32P-labeled TREpal as probe. Lane 1 represents the nonspecific binding of unprogrammed reticulocyte lysate. Open triangles indicate the nonspecific complex observed with unprogrammed reticulocyte lysate. Solid triangles indicate the specific TRα-RXRα heterodimer binding. Arrows indicate specific RXRα homodimer binding. The RXRα/RARβ heterodimer migrates at the same position as the RXRα homodimer. For comparison, the effect of 9-cis-RA on RARβ binding is shown.
(§2) (b) The effect of 9-cis-RA on RXR homodimer binding of ApoAI-RARE or CRBPII-RARE was analyzed essentially as described in FIG. 1a. Lane 1 represents the nonspecific binding of unprogrammed reticulocyte lysate, which are indicated by the open triangles. Solid triangles indicate the RAR/RXR heterodimer complex. Arrows indicate the specific RXR binding complex.
(§3) Gel retardation assays using in vitro synthesized receptor protein are described in the FIG. 1 legend. The following oligonucleotides and their complements were used as probes in FIGS. 3 and 4.
A general note: A gel shift assay detects complexes by their altered migration in electrophoresis.

Series [2] deals with T1, RXR alpha homodimer. Put plainly: EMSA; with 9-cis-RA. Conditions: chain copies: 2 (stated); label: 32P. On the procedure:
as §1
(§4) FIGS. 4a and 4c show the response element specific binding of RXR homodimer. The effect of 9-cis-RA on RXR binding on RA specific response elements (a), T_3 specific response elements (b), or estrogen specific response element (c) was analyzed by gel retardation assays as described in FIG. 1a. For comparison, the binding of RXR/RAR heterodimer (a), RXR/TR heterodimer (b) or estrogen receptor (c) is shown. Open triangles indicate the nonspecific binding of unprogrammed reticulocyte lysate. Solid triangle indicates the RAR/RXR heterodimer complex (a), TR/RXR heterodimer complex (b) or ER complexes (c). […]

In series [3] the target is T1, RXR alpha homodimer. The experiment in a line: EMSA; with 9-cis-RA (effect from 1e-9 M, optimal 1e-8 M); little binding without ligand; also induced by SR11217 and SR11237. Conditions: chain copies: 2 (stated); label: 32P. On the procedure:
as §1

The target of series [4] is TR alpha/RXR alpha heterodimer (UniProt P10827-2;P19793 P10827-2:1-410,P19793:1-462). Put plainly: EMSA. Particulars: label: 32P. On the procedure: as §1, §4
The target of series [5] is T1, RXR alpha homodimer. The experiment in a line: EMSA; with or without 9-cis-RA. Particulars: chain copies: 2 (stated); label: 32P. The protocol: as §1, §4
Series [6] addresses T1, RXR alpha homodimer. The experiment in a line: EMSA; strong with 9-cis-RA, lesser with 1e-6 M RA. Conditions: chain copies: 2 (stated); label: 32P. On the procedure: as §1, §2, §3
In a further series the target is T2, RAR beta (UniProt P10826-2 P10826-2:1-448).
T2 sequence: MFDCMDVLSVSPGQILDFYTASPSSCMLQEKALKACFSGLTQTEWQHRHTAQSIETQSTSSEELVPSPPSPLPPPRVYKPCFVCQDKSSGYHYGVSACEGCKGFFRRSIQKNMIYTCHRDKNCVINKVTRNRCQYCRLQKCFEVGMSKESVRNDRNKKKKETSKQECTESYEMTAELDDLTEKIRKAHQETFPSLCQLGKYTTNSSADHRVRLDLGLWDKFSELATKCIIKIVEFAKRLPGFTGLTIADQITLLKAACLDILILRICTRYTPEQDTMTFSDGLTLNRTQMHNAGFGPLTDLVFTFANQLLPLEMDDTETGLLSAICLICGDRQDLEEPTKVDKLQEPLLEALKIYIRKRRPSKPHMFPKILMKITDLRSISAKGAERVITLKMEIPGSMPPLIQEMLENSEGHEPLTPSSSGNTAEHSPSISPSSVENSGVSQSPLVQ
The experiment in a line: EMSA; RAR homodimer not induced by 9-cis-RA. Conditions: label: 32P. On the procedure:
as §1, §2, §3

The next series deals with Estrogen receptor (UniProt P03372 P03372:1-595). Put plainly: EMSA; ER complex shown for comparison. Conditions: chain copies: 2 (inferred); label: 32P. On the procedure:
as §1, §4

T1 sequence (P19793 whole entry, one chain of several): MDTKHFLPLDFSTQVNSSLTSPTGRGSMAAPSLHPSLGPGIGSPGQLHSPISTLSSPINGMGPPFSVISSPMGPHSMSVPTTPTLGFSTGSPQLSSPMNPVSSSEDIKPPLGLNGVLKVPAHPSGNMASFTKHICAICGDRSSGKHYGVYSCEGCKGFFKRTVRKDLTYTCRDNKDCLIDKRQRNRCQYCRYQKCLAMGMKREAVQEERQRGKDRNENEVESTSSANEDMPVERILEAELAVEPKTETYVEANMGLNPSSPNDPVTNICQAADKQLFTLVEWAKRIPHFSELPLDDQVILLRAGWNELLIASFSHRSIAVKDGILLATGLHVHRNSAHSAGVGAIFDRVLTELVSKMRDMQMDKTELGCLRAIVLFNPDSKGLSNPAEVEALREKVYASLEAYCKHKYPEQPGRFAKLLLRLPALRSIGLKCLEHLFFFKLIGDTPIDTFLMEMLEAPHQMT
Sequence of TR alpha/RXR alpha heterodimer (P10827 other isoform, or with tags, fused parts or gaps, chain 1 of 2): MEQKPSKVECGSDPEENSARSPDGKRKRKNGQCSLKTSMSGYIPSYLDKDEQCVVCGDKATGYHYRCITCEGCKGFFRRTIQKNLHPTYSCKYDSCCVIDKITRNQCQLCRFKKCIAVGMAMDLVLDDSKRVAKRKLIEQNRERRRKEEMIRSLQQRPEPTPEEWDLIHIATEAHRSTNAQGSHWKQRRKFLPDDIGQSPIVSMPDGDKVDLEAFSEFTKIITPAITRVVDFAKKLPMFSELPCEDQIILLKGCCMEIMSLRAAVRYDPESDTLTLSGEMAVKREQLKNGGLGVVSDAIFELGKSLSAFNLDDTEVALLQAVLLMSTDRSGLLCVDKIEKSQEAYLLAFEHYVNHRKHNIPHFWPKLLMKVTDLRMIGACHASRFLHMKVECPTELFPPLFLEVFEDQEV
Sequence of TR alpha/RXR alpha heterodimer (P19793 whole entry, chain 2 of 2): as the sequence (P19793 whole entry, one chain of several) above
Sequence of Estrogen receptor (P03372 whole entry, one chain of several): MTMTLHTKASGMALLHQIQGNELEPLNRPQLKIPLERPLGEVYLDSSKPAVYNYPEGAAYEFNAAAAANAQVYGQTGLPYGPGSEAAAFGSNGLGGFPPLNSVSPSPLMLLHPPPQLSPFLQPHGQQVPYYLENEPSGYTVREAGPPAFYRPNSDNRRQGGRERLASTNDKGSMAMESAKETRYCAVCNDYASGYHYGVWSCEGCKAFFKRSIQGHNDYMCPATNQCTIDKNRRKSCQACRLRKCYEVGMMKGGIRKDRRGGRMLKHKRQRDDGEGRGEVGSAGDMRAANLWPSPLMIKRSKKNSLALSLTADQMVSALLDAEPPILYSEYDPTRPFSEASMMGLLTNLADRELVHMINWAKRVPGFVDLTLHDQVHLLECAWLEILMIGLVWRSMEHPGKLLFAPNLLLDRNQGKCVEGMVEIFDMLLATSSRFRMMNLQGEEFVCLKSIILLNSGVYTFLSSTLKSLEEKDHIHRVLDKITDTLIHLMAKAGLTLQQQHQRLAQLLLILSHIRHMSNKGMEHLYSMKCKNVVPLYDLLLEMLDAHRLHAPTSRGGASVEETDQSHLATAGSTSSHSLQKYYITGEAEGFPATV

B1: CRBPII-RARE (dsDNA)
DNA 1: GATCCAGGTCACAGGTCACAGGTCACAGTTCAAGATC
DNA 2: GATCTTGAACTGTGACCTGTGACCTGTGACCTGGATC
As for B1, the binding result with RXR alpha homodimer [1] is “binds”.

B2: CRBPI-RARE (dsDNA)
DNA 1: GATCCAGGTCAAAAAGTCAGGATC
DNA 2: GATCCTGACTTTTTGACCTGGATC
Consider B2, for which the binding result with RXR alpha homodimer [2] is on record as “no binding”.

B3: TREpal (dsDNA)
DNA 1: GATCTCAGGTCATGACCTGAGATC
DNA 2: GATCTCAGGTCATGACCTGAGATC
With B3, in the series with RXR alpha homodimer [3], the binding result was “binds”.

B4: ME-TRE (dsDNA)
DNA 1: GATCCAGGACGTTGGGGTTAGGGGAGGACAGTGGGATC
DNA 2: GATCCCACTGTCCTCCCCTAACCCCAACGTCCTGGATC
Consider B4, for which the binding result in series [4] is “binds”; with RXR alpha homodimer [5], “no binding”.

B5: ApoAI-RARE (dsDNA)
DNA 1: GATCAGGGCAGGGGTCAAGGGTTCAGTGATC
DNA 2: GATCACTGAACCCTTGACCCCTGCCCTGATC
On to B5, for which the binding result in the series with RXR alpha homodimer [6] was “binds”; with RAR beta it was “no binding”.

B6: DR-5 (dsDNA)
DNA 1: GATCTCAGGTCATCCTCAGGTCAGATC
DNA 2: GATCTGACCTGAGGATGACCTGAGATC
As for B6, the binding result in the series with RXR alpha homodimer [2] is recorded as “no binding”.

B7: MHC-TRE (dsDNA)
DNA 1: GATCCTGGAGGTGACAGGAGGACAGCGATC
DNA 2: GATCGCTGTCCTCCTGTCACCTCCAGGATC
Take B7: the binding result in series [4] was “binds”; with RXR alpha homodimer [5], “no binding”.

B8: ERE (dsDNA)
DNA 1: GATCTCAGGTCACTGTGACCTGAGATC
DNA 2: GATCTCAGGTCACAGTGACCTGAGATC
Regarding B8, in the series with Estrogen receptor, the binding result was “binds”.
